# Assay: label from the status in PepcDB records
# 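Note: failed if final PepcDB status was selected cloned or expressed and not failed if soluble or beyond.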
row,Sequence,protein production
1,MQQHSSKTAYVYSDKLLQYRFHDQHPFNQMRLKLTTELLLNANLLSPEQIVQPRIATGDELMLIHKYDYVEAIKHASHGIISEDEAKKYGLNDEENGQFKHMHRHSATIVGGALTLADLIMSGKVLNGCHLGGGLHHAQPGRASGFCIYNDIAITAQYIAKEYNQRVLIIDTDAHHGDGTQWSFYADNHVTTYSIHETGKFLFPGSGHYTERGEDIGYGHTVNVPLEPYTEDASFLECFKLTVEPVVKSFKPDIILSVNGVDIHYRDPLTHLNCTLHSLYEIPYFVKYLADSYTNGKVIMFGGGGYNIWRVVPRAWSHVFLSLIDQPIQSGYLPLEWINKWKHYSSELLPKRWEDRLNDYTYVPRTKEISEKNKKLALHIASWYESTRQLEHHHHHH,failed
2,MQQTVTYGAKWKQFLTIFTPIVITQLTLFSMTFFDTTMSGNYSNQALAGVAIGSSFWAPVNAAFSGLLMAITPIIAQLIGAKKEKQVKNTVHNGLYIALFLAFILILINFLVVPTILTHMPVTAEVAHIARHFLNGICIGIPAFFISAILRSFIDSLGLTRVTMLITLCTVPFNIFLNYCFIFGNFGFPEMGGAGSGYATGITYWLVVLVSVILIQTQTRLRKFGIFKGLTALRFSKVKEIIGIGVPNGLTILFETSIFSAVTILMGAFGTETIAAHQSANSVCTLLYAFPLSVASTLTILGGYETGAKRLKDAKQYRHIGMTAAILIGCINGAILFFFRDIIAGFYTNDAELSDLIMHFLVYAILFQFADAVLSPVLGALRGYKDVAITSIIAFISYWLIGLPVGYGLSFTNLGPFGYWIGLSTGLFVAAFILSIRVRKTERKLSLNAKNAEISS,not failed
3,MQQVGFGTWNWVAVIVYLVLMLLVGAYFTKRASQNTDSFFTASGRLPSWAVGFSIYATTLSAITFMSTPEKAFLTDWSYIAGNIAIVAIIPLLIYFYVPFFKKLKVTSAYEYLEARFRPSVRVIGSLLFVLFHLGRVAIVIYLPTLAITAVSDLNPYVVASLVGILCILYTFLGGFEGVVWSDFIQGIILLGGAAAIIILGIIHIKGGMGTVVTDALDHKKLISADNWKFNTAAAAIPIIFLGNIFNNLHQYTASQDVVQRYQASESMSETKKSLWMNGVLALISAPLFYGMGTMLYSFYTHESALPEGFNTSSIVPYLILTEMPPFIAGLLIATIFAAAQSTISSSLNSISACLSVDIKHRIFGKGKEKDEVTFARWMIILSGLFGFGMSIYLIASDSNDLWDLFLLITGLVGVPLAGVFAVGIFTKRTNTLGVICGLALGIIFAYIFNGIGGGNSPFFVSIISFLVAFIFSYLIRIVIPDKKKDIVGLTIFDIKEKSNYVSKIHVKK,failed
4,MQRFLSIALALCVGLTLSLDASAKRFGGGKSSGSAPIHQTRQATPTTPAAAPTVPGRAPAAASGASRWLGPLAGLAAGGLLASMFMGDGFEGFQIMDFLIVALIAFLVFRFIAARRRQQQPQMAMPGHAPMQREAHAQPAQPSIFGGSAAPAATAAPVINAPAWFNEQSFLAAARNHFQSLQQHWDANEMDKISEFVTPQMLEFLKRERAELGDGFQSTYIDNLEVQLDGVDDRADRTDATLTFRGVSKNSRFDQGEVFSESWHMVRAQGENQPWLVAGIRQNS,failed
5,MQRISVIVPMYNEARHITRTLDSVLRAARAATLDCELIVVDNGSTDQGPQRARELGARVLLCPGIGIGALRNRGAAVATGDSLAFLDADIEVPGNWLQLWQQAHAEQRAEVFALDCAAPASAPWFARAWQRRSLAGDPQPRLLPWMPTPNLCLQRAWFERVGGFNEQLRTGEDKDFGLRLHAAGARQLSLPQPQVLHWGYEASWAEWAGKERWRQGSHVQLLKGSGLSLRLLRFPLLCLACALLSLVALLCLLAGLPGAAGLCLLLGALAPLALAVRQGLRQRDPLFVLQLWLLHWVRLHLGALALVQALFNRSAERPDRG,failed
6,MQRLLLANDLPGVGKVALATSIPIAAACQVETMLLPTVLLSSHTGGFPDVVIEDMTDLNQAYFEQWKNLNLELAGILSGYCRNPQQLSQLAMYAKHTETPLIVDPIMGDSGRLYTGFTSSYVEAMKELTQSAQLILPNITEASLLTGRNYLGDSYDIHDIEDLLEALAEQVSADIVLTGISFDDSQIGVAYFQQETGEITTYMSKKYPANFFGTGDILSTLLAVATIQQINLHQAIPLALDFIDKSLERTLALDRDLKFGISFEPFLAELQQAFQILKEKL,failed
7,MQRVEEVFARREPELAPMAEPAPQPQVRQEPLPEVDQAYIHNYVETSGQQDIRADFRDDAGAVAEVFDVHSRQPRAAEPVVYQQAAPQVAPQLAWEEPQAIEPSQPEWHAMPELPADVSSNISSDAHAYAPEPQAFDLADEVEIAVAEAAPAPVSVRPPAHGGRSSLEFSSLRLPLANFGARRDVSAVDPRRVEPRSELYPAASRIEPQVEPAPAVVQAEETAPSFAQPVAEVFTPAAEPLAPAIAERPAAKNLSPMDELIYGVAQYSIPERGEAQPVKTEPVAQAAKVEPPAVAAAPAKAAPVAAAVPASPIEEPDFTDFTGFNDDDFELALDDLDLDLDLSEIAEAEVAPAPQPVRPQPATPIAAVAPQPVRHEPAPQPRPAPVVAAAPIAAAPVVAAPVQPRPVAAQPAVPQTLESLPFDPSQIGETEEHPETIIEMDVPELPVGVFEPKPAARRHEEDLDIDTELATLFAPAVAGGLDRHKHAENRGAAQARPAPAPEEADEFERALEEDFRRSMQEAAASRGNAPRDAETYVDHQAAYRDEDERGGRRWIMPVAAAIGLVLIGGGVYALISGGSSGTGSNGAPVIISADNDPMKVVPENPGGRVVPNQDKAVYDRVAGGAAADPKQPALISSNEKPVDVVQRTLIPEQLPLEGENDADMEAAGTPVGETEDPRLLSPEEKAAHNEGAGATGVSPRKVRTMIVKPDGTLVAQEVDAPAAQPPKADKVAELAAPQTAKPGEGAPAVIAASRVPVAPEQAQPQASTPAAAKPSTQSAAPLPAARPSSQPANVVATVTNQGNVRPATTAPAQAAQQQTAAATPAATSTPSAGGYYIQIASLPSQAEAQKSYQNMSAKFGSVIGGRGVDIKAAEIAGKGTFYRVRIPAGDKNEAVALCEKFRSAGGSCLVAR,failed
8,MQRVLGFSTCSYSWIAQSFNRFHPRCIQPTCFRSKVTKLCPKRPRSSLLSDNNATKYPQKAIYLTAQVKLPQISEVQNATFDQCLPLARNICFRLQEEPQDENAYQVLKELLSREEGARAFFVEYLSDYELSLPDKKPPFKLEKLLKDCDEYVPNLLARNLAMSVAKEVDLANDSKNAENEEVDDTGSGSWSDSVEESSGGPTMVKERTALLIDSIASSEIARELVALWFSIRSRKGKYVHFLERQKFRKDQLDVIQRTLEVFIGA,failed
9,MQSKRGRPRNIETQKAILSASYELLLESGFKAVTVDKIAERAKVSKATIYKWWPNKAAVVMDGFLSAAAARLPVPDTGSALNDILIHATSLANFLISREGTIINELVGEGQFDSKLAEEYRVRYFQPRRLQAKQLLEKGIKRGELKENLDIELSIDLIYGPIFYRLLVTGEKLDDSYVHDLVINAFEGIRLR,not failed
10,MQSPPHDPASALAIRNHYRQSQSRAARLRLLVDTGQELIQLPPEAMRKCVLQRACAFVAMDHGLLLEWGADNGVQTTARHGSKERLSTLETTADPLAIGPQWLERPGTHLPCVLLLPLRGADEGSFGTLVLANSVAISAPDGEDIESLQLLATLLAAHLENNRLLEALVARDRT,not failed
11,MQSTIRKQLLQVFSEADGEFVSGQTISDKLGCSRTAVWKHMEDLRNEGYELEAVRRLGYRIASKPDKVTANEIQLGLQTKHIGRTVYFEESVESTQHIAAKLAYEGAEEGTIVVAEEQTAGRGRLSRKWHSPKGTGIWMSIILRPSIPVHHAPQLTLLAAVSVAQAIEKCTGVNVGIKWPNDILIQGKKAVGILTEMQADPDKINAVIMGIGINANQKQEHFDEEIQHIATSLAIESGKPIVRAELMQQIFLQLEKLYEEYLQNGFSVIKILWESYAVSIGKEINARTMRETITGVAKGITEDGVLLLEDHEGKVHHIHSADIEIK,failed
12,MQTIIYQIAPNDWVTDEVLMASTGLKPGTILRARKKAWFVGREYKHMTLDGKPKANGECLYHLPTINRWIRNMPDPDVDLLEHHHHHH,not failed
13,MQTINATEIRNNFSYYIDTVVRDKPIAVKRNRDVLLFFSEQIIKDLLQDLKIHAELSKEDGIIIGTIDGFDLVVSGESEQEVIQKLAEDLLEYAQDYMNDFKLFYNAPNRKTHYPYILKVLLSSNIDEVKGYIYAEMV,not failed
14,MQTLIIVAHPELARSNTQPFFKAAIENFSNVTWHPLVADFNVEQEQSLLLQNDRIILEFPLYWYSAPALLKQWMDTVMTTKFATGHQYALEGKELGIVVSTGDNGNAFQAGAAEKFTISELMRPFEAFANKTKMMYLPILAVHQFLYLEPDAQQRLLVAYQQYATNVGAGHFKDLEHHHHHH,not failed

# Reference: a protein production outcome set (Wang et al. 2014)
